Reference: the DeepSol protein solubility set

test: soluble on expression in E. coli; label from the status in PepcDB or PDB records

Soluble on expression in E. coli, soluble:
MQSQRAYELIKAEIFKRLGVNRTDAYKDSYLQRRIRARMRKLGISDYMEYYKILKSNKEEFEELLLTIAINVTEFFRDPIVWKTFQNKILPELVQFKKSKGFRSIKIWSAACSTGQEPYSIAMTLYEVLGENLGGFRVSILATDIDKEALQIAMRGEYPVDAVEKQVPRHMIYKYFDRISEERYRIKPHVKRLVTFRWFNLLSSIYPKGFDVIFIRNVLIYMSKEAQEDIFRKLYDSLEDHGYLILGKTETILGRSANLFKLYDLVAKVYKKNLGVKGNG, GPNANPIPEHFFAPYIDMSLSVHKPLVEYAKLTGTKYFTLAFILYSSVYNGPAWAGSIPLEKFVDEVRELREIGGEVIIAFGGAVGPYLCQQASTPEQLAEWYIKVIDTYNATYLDFDIAAGIDADKLADALLIVQRERPWVKFSFTLPSDPGIGLAGGYGIIETMAKKGVRVDRVNPMTMDYYWTPSNAENAIKVAENVFRQLKQIYPEKSDEEIWKMIGLTPMIGVNDDKSVFTLEDAQQLVDWAIQHKIGSLAFWSVDRDHPGPTGEVSPLHRGTNDPDWAFSHVFVKFMEAFGYTFSAQTSEASVPT, MAMWVFGYGSLIWKTGFPFDESLPGFIKGYRRVFHQGSTDHRGTPDFPGRTVTLEAAHEEHLEVREKQYDQKEYLDFFTDSNASEPAVAGVMVYIASPDKKSNNNYLGPAPLEDIAKQIVKAKGPSGPNRDYLFNLEEALAQLGFKDKHVTDLANQVRHILSESEELDIDATAATANNV, MTTHIQKPATGSPLTLLNGVLQVPDQPIIPFIEGDGIGCDVTPAMRSVVDAAVAKVYGGQRQIAWMELFAGQKAVQLYGEGQYLPDETMAAIREYKVAIKGPLETPVGGGIRSLNVAMRQDLDLYVCLRPVRYFEGTPSPMRHPEKVDMVIFRENSEDIYAGIEWPAGSPEAEKIIRFLREEMGVTKIRFPDSSAIGIKPVSTEGSERLIRRTIQYALEHGKPSVSLVHKGNIMKFTEGGFRDWGYALAEREFAGRVFTWRQKAAISKAEGKAAGQKAEQQAIADGKLIIKDVIADNFLQQILLRPEDYSVVATLNLNGDYVSDALAAEVGGIGMAPGANLSDTHAIFEATHGTAPDIAGQGKANPSSLILSAVMMLEHLGWGEAAQAIVAAMNATIAAGEVTGDLAALRGDVPALSTTEFTAALIRRF, GMSFENYFPLWNDLNTAQKKLISDNLITQHVKKGTIIHNGNMDCTGLLLVKSGQLRTYILSDEGREITLYRLFDMDMCLLSASCIMRSIQFEVTIEAEKDTDLWIIPAEIYKGIMKDSAPVANYTNELMATRFSDVMWLIEQIMWKSLDKRVASFLLEETSIEGTNELKITHETIANHLGSHREVITRMLRYFQVEGLVKLSRGKITILDSKRLETLQRS, MVSVIKPEMKMRYYMDGSVNGHEFTIEGEGTGRPYEGHQEMTLRVTMAKGGPMPFAFDLVSHVFCYGHRPFTKYPEEIPDYFKQAFPEGLSWERSLEFEDGGSASVSAHISLRGNTFYHKSKFTGVNFPADGPIMQNQSVDWEPSTEKITASDGVLKGDVTMYLKLEGGGNHKCQFKTTYKAAKKILKMPGSHYISHRLVRKTEGNITELVEDAVAHSLEHHHHHH, GHMLVYNQEELVRFVEEAKQYARYGKVADYIPALGKANPNELSIAIYTPDDEVVSAGDVTVKVTLQSISKIIALALVLIDRGEDEVFHKVGMEPTDYPFHSIAKLEEKPAKPLNPMINAGALVVTSMIQGGSVSERLERLLAFVRRLAGNERISYSDEVARSEFETAFLNRSLCYFLKQHRIIDEDVEELMELYTKQCAIEMTCIDLARIGLVLALDGRDPHSSEPLMPLDVARICKTFMVTCGMYNSSGEFAIKVGIPAKSGVSGGILAAVPGRCGIGVFGPALDDKGNSLTGVKLLERLSKTYSLSIF, MSLADEMGYVPDRRAQKLRQASSRLLGVVFELQQPFHGDLVEQIYAAATRRGYDVMLSAVAPSRAEKVAVQALMRERCEAAILLGTRFDTDELGALADRVPALVVARASGLPGVGAVRGDDVAGITLAVDHLTELGHRNIAHIDGADAPGGADRRAGFLAAMDRHGLSASATVVTGGTTETEGAEGMHTLLEMPTPPTAVVAFNDRCATGVLDLLVRSGRDVPADISVVGYDDSRLARIPHVQMTTISQDATHMAEAAVDGALAQISGDKAVDLVLAPHLVRRATTGPVAHREGHHHHHH, MSLDLKITNGFYDPSHLSYEVVERKGLGHPDTLADGIAEQIEIDYSLYCLDKFGVIPHHNFDKIIIRGGHSVQDFGGSDFIEPIKIIFLGRASKKCFNSSIPLFKIQKKAATKYLNRILPNLDVENYVEFETLTSDFTTKTNWFSPEAIEDLPEYLDVPKANDTATMISYWPLTISEELALMIEGYFYKLDKNELPTPRFTKMGGDIKVMVVRNDLEYSIRINFPLISKFFNNDIESQLYVDKHVEKIKKYIEQKYKNISFSIDYHYYLTTTGSCIDFGEEGAVGRGNKTHGIISSFRPNTMEAPAGKNCTYFVGKVWGFLSDTIAKEIYEAFNTPCQIIMQLNIGSKLYRPTHLFIQTEESVDQERVLEIVNRHLNNGKQNTNLILSTQHFIPKTNVYDGEGHHHHHH, MGRKWANIVAKKTAKDGATSKIYAKFGVEIYAAAKQGEPDPELNTSLKFVIERAKQAQVPKHVIDKAIDKAKGGGDETFVQGRYEGFGPNGSMIIAETLTSNVNRTIANVRTIFNKKGGNIGAAGSVSYMFDNTGVIVFKGTDPDHIFEILLEAEVDVRDVTEEEGNIVIYTEPTDLHKGIAALKAAGITEFSTTELEMIAQSEVELSPEDLEIFEGLVDALEDDDDVQKVYHNVANL

Soluble on expression in E. coli, not soluble:
MTLGTALKQARKAQQLNQKQAARGICAQSMLSAIENDRYVPNARLLLALCQRLGVAVSTLSLADDFEISAEQAFNDRVRQMCNAHQYQQLKDWLLQPTTLEHVQTDEQTQAYYYYLGVACWQVDRTSDAAQQNLRLAIGMAAPSSPPTTLTRLALISLAVVKAHHHPQAPVAALVTRALADIDAGAYEENANIVFYLAGLVAYEQHDSQLAVARLTQGLAFATTHDSHYMLANIYQLMAQLAMAAGETATAQVASQRSQVFKDLFKEQINDRL, MGSDKIHHHHHHMIVEMTGIHKSFSGNPVLKDVSFTLEKGEIHALMGENGAGKSTLMKILTGIYERDSGTVKIKGREVHYKHPKEAEADGLAVIHQELNILPELTVAENLFVGKERTYGKTGWIKSKEMNRLAEEKLAELGLKVKGTERAGNLSVGKQQLIEIAKALMTNADIIIMDEPTAALTDREIDTLFATVRELQKKGVTFVYISHRMEEIFSLCQRITVLRDGEYVGTKVIAETSFDEIVKMMVGRALGNRFPEHTLTPGDVKLEIKHLTRAGEFENVSLSVRAGEILGISGLMGAGRSELVETIFGYRKADSGEVWIDGKQAAIKGPDQAIAQGIGFVSEDRKSKGLIVDFSIRDNISLTNLSRISTSSWISSEKERSLYEELAKKLHVKASGPSQQAKSLSGGNQQKIVIAKWLGIEPKILILDEPTRGVDVGAKKEIYTIMNELAKQGVAIIMVSSELPEVIGLSTRVAVMFEGKLMHILERDELSEETIMHYATGGDKHVRQ, MGSDKIHHHHHHETEAPQVTTSSRPAVEIKYNDPRDPFEEVNRTMWDFNYLFLDRYVIRPVAHGYKDYVPNPVRTGVNNFVYNLEEPSSLVNNTLQGKWGWAANAGGRFTVNTTIGLLGLVDVADMMGMHRKQDDFNEVLGYYGTPNGPYFMAPFYGPIVTREIASDWVDGLYFPLSELTIWQSVLKWGLKGLDARSKAIDQERLLDNALDPYAFVKDAYLQHMDYKVFDGDVPSSQADDELLDEYLDELE, MGGRQSSVTEERPRSNSVDTAQVRVSSQHSSSQRANVMTAAEFMQTMRNARFLSSSSDSNASEDDAGPSHSTTHGNRSRGLHATPGRLHGHHSRRSVPVFMMDMKCPVCHKVVPSDDADIHLVMCLTRPKITYNDDVLKDDKGECSICLEDLEAGHKIARLPCLCIYHKQCIDDWFKRKNCCPEHPGDD, MQYHEPVWIPAHLTTGEPDSFAAFTLEERLPAILDNLANHADARTDQALQQLAVEIREGEITPLPPVILGLFDQVIKPYTGRRWTDMPFLTVELYFYARILLAFGHTATTLVDPFHPIKNTVSLQAIESLTTMTGYCDSDCDITGLLRWSMTGNTADLSQQVVTDAGQISLLVDESYVAGGLFDSGLNRIDFVFDNAGMDVLTDLLLILRISRHCSRIVAHVRPWPMFVSDVTMTDMKYLIRKLVTSSIPAAKKLGEDITQLLHQNRLIFRSSSALGLPVCFCEEEALTRETFENTELVIFKGDLNYRYFVGDRRWPHTMEKRYFFERFSQPAICLRTLKSEVLVGLPADIATRTLHLQPDWLTSGRYGIIQVFAHMAGDPNSLEHHHHHH, MEIFEKIRSLRKNHNLSQEEIADKINLSVSGYRKIENGKSRINHKRLEQIAEALEVSPLDLIPNSWRHGSSVYQVGKNGFYGDSSRAIEIELLKQQIKQEQLIKAKDETIEDKNRLISRLEEMLKILNT, MGSDKIHHHHHHMDIRQLTYFIAVAEAKNYSRAAKSLFVTQPTLSQSIKKLEAELNTILFLQNGRQLALTEAGEILYEKGQLLMTNVNQMVTEIQQLNQEKKEGIRVGLTSLFAIQFMKQISTFMATHSNVEVSLIQDGSRKLQELLAKGKIDIGLLSFPSTRNDITIEPLQTSTKGYKVSIVMPKSHPLATLPEIELNDLRDYKVASLNEHYMLGEMLPRKCRALGFDPHIVFKHNDWEVLIHSLQDLNAVTILPSEFESISQVQDLCWVPLKDKNNFYPIGIAYRNDTSFSPMIEEFLSLLKTN, MGKEYVVIGLGRFGGSIVRELNALDMDVMAIDHDENRVNEYSDIATHAVVADTTDEAVMKSLGIRNFDHVIVAIGENIQSSTLTTLILKELGVKKVTAKAQNDYHAKILNKIGADTVVHPERDMGRRIAHNVASASVLDYLELADEHSIVELKATEKMAGQSIIDLDIRAQYGINIIAIKRGKEFIISPNPNINLEIGDILIMIGHDNDLNRFEKNIATR, MGSDKIHHHHHHMEQLLHYVWKHKIFPLHELQTTTGLPVEVIDTGLPNSDSGPDFFNAKLKIGGTLWVGNVEIHTASSDWFRHGHDRDIAYDSVILHIVTEIDCEIYRSNGEPVPQLRLPCPEQVKEHYDELCRADIHPPCYSILETLPKLTIHSWLTALQTERFDQKNRTITRRLQRCNQHWEDAFFITLARNFGFGLNGDAFETWANLLSFRAIDKHRDDLTQVEAFFFGQAGLLEGESADDYFSWMQKEFRYLQHKFELPPVMNPSLWRFLRLRPGNFPHVRLAQLASLYYRERSLFSRVMEAETLKDLKHIFAGHTSAYWEEHFMFGKSSPRREKSIGAGAKELIIINTVIPFLYAYGLHKADERLCERAASLLEELKAENNYVTRMWSGAGIPVQTAADSQALLQLQKEYCDKKKCLYCRFGYEYLRHK, ERLFQVFISLGVGKSAIRQHLASLDPTNSRDIEALADELSGKRPLLYRGVAMLLAHHSFAKSLREDAAGMWLQEKRHQLHSGLR, MGSDKIHHHHHHMPKQTFFNLKDEKRQRIIDAAEREFSQCPLYESSINNIIKDAKIPRGSFYQYFDDLSDLYGYYFSLILEDIQENLIDSVQEADGDIFSAVKKYAGEYMKEIISGNHRDFYRNFFLGANISKRSKDGKHPGFDVYHSDRMKELRVNLKKEVNWKLLKVTNEKDQNMIQQLIMMIFFHSFANYFVHSNNTDSDPAEVQKEIERNLNWLEFGARRTEDK, MELSPVFARRLYLALLVESLERPNVPKLIEKTGWPRRTIQDVIKAMPGIGIELNFVQDGRRHNDGYYQLSDWGPFDSQWVTERKKDIAASLGFCA, MAETDPKTVQDLTSVVQTLLQQMQDKFQTMSDQIIGRIDDMSSRIDDLEKNIADLMTQAGVEELESENKIPATQKS
